± gives the standard error. For some assays here: This sample holds only a part of the variants without activity.
B1: glmS ribozyme (parent)
chain: AUAAAAGCGCCAGAACUACAGAAAUGUAGUUGACGAGGAGGAGGUUUAUCGAAUUUUCGGCGGAUGCCUCCAAA

Tests used:
Conditions in all cases: with glucosamine-6-phosphate
glucosamine-6-phosphate [1] = variants of: B1; assay: kcat; higher = faster cleavage; RNA array
In short: (§1)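 kobs was derived by fitting per-tile medians to one- or two-exponential decays after normalising signals to baseline and to non-cleaving reference variants. Those signals came from barcoded ribozyme variants transcribed in situ by E. coli RNA polymerase on sequenced MiSeq chips, followed through a hybridised Cy3 probe at 37 °C and imaged over ~14 h. Glucosamine-6-phosphate (40 μM to 10 mM) in HEPES/KCl/Mg(OAc)2 buffer was flowed in. Weighted Michaelis–Menten fits across concentrations then gave kcat and KM.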

glucosamine-6-phosphate [2] = variants of: B1; assay: KM; higher = weaker cofactor use; RNA array
In short: as §1

glucosamine-6-phosphate [3] = variants of: B1; assay: self-cleavage kobs at 10000 uM GlcN6P; higher = faster cleavage; RNA array
In short: as §1

glucosamine-6-phosphate [4] = variants of: B1; assay: self-cleavage kobs at 160 uM GlcN6P; higher = faster cleavage; RNA array
In short: as §1

glucosamine-6-phosphate [5] = variants of: B1; assay: self-cleavage kobs at 40 uM GlcN6P; higher = faster cleavage; RNA array
In short: as §1

glucosamine-6-phosphate [6] = variants of: B1; assay: self-cleavage kobs at 640 uM GlcN6P; higher = faster cleavage; RNA array
In short: as §1

glucosamine-6-phosphate [7] = variants of: B1; assay: self-cleavage kobs at 2500 uM GlcN6P; higher = faster cleavage; RNA array
In short: as §1

Variant | kcat (glucosamine-6-phosphate [1]) [s⁻¹] | KM (glucosamine-6-phosphate [2]) [mM] | self-cleavage kobs at 10000 uM GlcN6P (glucosamine-6-phosphate [3]) [s⁻¹] | self-cleavage kobs at 160 uM GlcN6P (glucosamine-6-phosphate [4]) [s⁻¹] | self-cleavage kobs at 40 uM GlcN6P (glucosamine-6-phosphate [5]) [s⁻¹] | self-cleavage kobs at 640 uM GlcN6P (glucosamine-6-phosphate [6]) [s⁻¹] | self-cleavage kobs at 2500 uM GlcN6P (glucosamine-6-phosphate [7]) [s⁻¹]
A14U A48U | 0.000103 ± 7.3e-06 | 9.24 ± 1.3 | 5.37e-05 ± 9.7e-06 | – | – | – | –
C16A G62A | < 1e-05 | – | – | < 1e-05 | – | – | –
C10G A12U | 8.15e-05 ± 3.2e-05 | – | – | – | – | – | –
G38C C71U | < 1e-05 | – | – | – | < 1e-05 | < 1e-05 | –
U47G C71G | 0.00028 ± 1.5e-05 | 0.685 ± 0.085 | 0.000265 ± 2.4e-05 | 5.19e-05 ± 7.8e-06 | – | 0.000146 ± 1.7e-05 | 0.000205 ± 2.8e-05
U65G U69G | 6.55e-05 ± 6.1e-06 | – | 6.56e-05 ± 1.1e-05 | 4.06e-05 ± 1.8e-05 | – | 3.94e-05 ± 1.3e-05 | 6.29e-05 ± 1.2e-05
A42G A48U | 0.00077 ± 0.00015 | 3.22 ± 1.1 | 0.000576 ± 0.00013 | – | – | 0.000148 ± 4.3e-05 | –
A15U A53G | 0.00765 ± 0.0013 | 1.99 ± 0.52 | 0.00681 ± 0.00053 | 0.000531 ± 6.8e-05 | 0.00019 ± 1.8e-05 | 0.0015 ± 0.0002 | 0.00373 ± 0.00055
G40A U56A | 0.00543 ± 0.0016 | 3.08 ± 1.3 | 0.00516 ± 0.0011 | 0.000256 ± 5.7e-05 | 9.01e-05 ± 2.5e-05 | 0.00103 ± 0.00021 | 0.00192 ± 0.00042
G41A U45C | 0.0002 ± 3.8e-05 | 0.303 ± 0.14 | 0.000372 ± 0.00017 | 6.67e-05 ± 1.8e-05 | – | 0.000158 ± 3.6e-05 | 0.000154 ± 3.9e-05
A12U C16A U56A | 0.00194 ± 0.00074 | – | 0.00247 ± 0.00041 | – | 0.000111 ± 2e-05 | 0.000636 ± 0.00015 | 0.00102 ± 0.00035
G29A C67U C71G | 4.81e-05 ± 2.2e-05 | – | – | – | – | 9.19e-05 ± 4.3e-05 | –
G13U A15U | 0.000299 ± 2e-05 | 5.44 ± 0.76 | 0.000194 ± 1.9e-05 | – | – | – | 9.42e-05 ± 1.4e-05
U47C U54A | 0.00447 ± 0.00014 | 1.63 ± 0.077 | 0.00384 ± 0.00049 | 0.00038 ± 7.2e-05 | 0.000112 ± 1.8e-05 | 0.00127 ± 0.00023 | 0.00275 ± 0.00072
A36U G38A | < 1e-05 | – | – | – | – | – | –
U45G U46C | 0.0148 ± 0.0013 | 3.53 ± 0.44 | 0.011 ± 0.0013 | 0.00068 ± 0.00013 | 0.000173 ± 2.8e-05 | 0.0019 ± 0.00046 | 0.00634 ± 0.001
C61U U69A | 4.43e-05 ± 1.5e-05 | – | – | 3.86e-05 ± 1.8e-05 | – | 4.2e-05 ± 1.3e-05 | 6.76e-05 ± 1.9e-05
